First the molecules themselves.
B1: Tryptophan synthase alpha chain, P0A877 (parent)
chain: MERYESLFAQLKERKEGAFVPFVTLGDPGIEQSLKIIDTLIEAGADALELGIPFSDPLADGPTIQNATLRAFAAGVTPAQCFEMLALIRQKHPTIPIGLLMYANLVFNKGIDEFYAQCEKVGVDSVLVADVPVEESAPFRQAALRHNVAPIFICPPNADDDLLRQIASYGRGYTYLLSRAGVTGAENRAALPLNHLVAKLKEYNAAPPLQGFGISAPDQVKAAIDAGAAGAISGSAIVKIIEQHINEPEKMLAALKVFVQPMKAATRS

This data set covers variants of B1. The note with it: Escherichia coli (strain K12), pH 7.8, Urea, CD, Potassium phosphate 10 mM, structure 1WQ5, whole UniProt chain shown.

Values joined by “and” are separate entries in the source; they are usually repeats but may differ in a detail not shown here. Equal values may be shown once.

This note sets out measurements from FireProtDB (doi:10.1021/bi00458a027).

As for G211D, under “25 °C”, the “ddG of mutation (higher = less stable)” value was 0.3 kcal/mol and 0.8 kcal/mol; the denaturant m value is 2 kcal/mol/M and 1.2 kcal/mol/M; the “denaturant midpoint (higher = more stable)” value (shortened to “denaturant midpoint”) is 2.7 M and 3.61 M; the unfolding free energy was 5.4 kcal/mol and 4.2 kcal/mol.
For G211W, under “25 °C”, the “ddG of mutation (higher = less stable)” value is 1.6 kcal/mol and 1.1 kcal/mol; the denaturant m value is 1.8 kcal/mol/M and 1.1 kcal/mol/M; the “denaturant midpoint” value is 2.25 M and 3.62 M; the unfolding free energy was 4.1 kcal/mol and 3.9 kcal/mol.
For G211S, under “25 °C”, the “ddG of mutation (higher = less stable)” value was -0.2 kcal/mol; the denaturant m value was 2.4 kcal/mol/M and 1.3 kcal/mol/M; the “denaturant midpoint” value was 2.46 M and 3.97 M; the unfolding free energy is 5.9 kcal/mol and 5.2 kcal/mol.
Take G211R: where the note is “4 °C”, the denaturant m value is 1.6 kcal/mol/M and 2.2 kcal/mol/M; the “denaturant midpoint” value was 1.4 M and 3.28 M.
With G211V, for the setting “25 °C”, the denaturant m value was 1.9 kcal/mol/M and 1.6 kcal/mol/M; the “denaturant midpoint” value was 2.78 M and 4.3 M; the unfolding free energy was 5.4 kcal/mol and 6.9 kcal/mol.
Consider G211E, for which, where the note is “25 °C”, the denaturant m value is 3 kcal/mol/M and 1.5 kcal/mol/M; the “denaturant midpoint” value is 2.73 M and 3.72 M; the unfolding free energy is 8.1 kcal/mol and 5.5 kcal/mol.
